From patent US20050282743A1, “Molecular interactions in cells” (Arbor Vita Corporation, priority 2001, published 2005)

T1: GST-PTPL1 PDZ domain 2 (Homo sapiens (Human)), Q12923
T1 chain: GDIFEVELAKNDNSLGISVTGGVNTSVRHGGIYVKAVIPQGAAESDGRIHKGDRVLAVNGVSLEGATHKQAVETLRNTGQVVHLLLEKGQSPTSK

T2: GST-Shank 1 PDZ domain 1 (Homo sapiens (Human)), Q9UPX8
T2 chain: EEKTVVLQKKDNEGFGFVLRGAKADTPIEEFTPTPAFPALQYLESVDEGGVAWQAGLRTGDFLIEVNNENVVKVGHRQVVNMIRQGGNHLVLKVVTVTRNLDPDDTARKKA

T3: GST-LIM-RIL PDZ domain 1 (Homo sapiens (Human)), P50479
T3 chain: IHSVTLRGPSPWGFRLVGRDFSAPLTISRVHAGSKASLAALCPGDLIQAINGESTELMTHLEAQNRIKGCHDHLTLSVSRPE

T4: GST-LIM Mystique PDZ domain 1 (Homo sapiens (Human)), Q96JY6
T4 chain: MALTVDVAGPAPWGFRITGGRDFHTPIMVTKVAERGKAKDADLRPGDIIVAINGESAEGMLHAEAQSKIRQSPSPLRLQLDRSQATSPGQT

T5: GST-ENIGMA PDZ domain 1 (Homo sapiens (Human)), Q9NR12
T5 chain: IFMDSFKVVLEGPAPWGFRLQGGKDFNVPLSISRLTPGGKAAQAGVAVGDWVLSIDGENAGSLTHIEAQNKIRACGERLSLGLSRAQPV

T6: GST-AIPC PDZ domain 1 (Homo sapiens (Human)), O15018
T6 chain: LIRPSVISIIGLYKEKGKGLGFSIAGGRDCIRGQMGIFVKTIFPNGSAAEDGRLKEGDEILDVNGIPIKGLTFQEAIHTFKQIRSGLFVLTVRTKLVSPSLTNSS

T7: GST-MINT1 PDZ domain 2 (Mus musculus (Mouse)), B2RUJ5
T7 chain: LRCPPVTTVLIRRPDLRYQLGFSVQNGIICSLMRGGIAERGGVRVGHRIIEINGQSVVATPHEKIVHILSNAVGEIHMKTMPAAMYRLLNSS

T8: GST-KIAA1526 PDZ domain 1 (Homo sapiens (Human)), Q9P202
T8 chain: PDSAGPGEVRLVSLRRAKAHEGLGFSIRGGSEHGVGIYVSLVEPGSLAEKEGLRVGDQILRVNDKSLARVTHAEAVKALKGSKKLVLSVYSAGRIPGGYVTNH

T9: GST-KIAA0973 PDZ domain 1 (Homo sapiens (Human)), Q9Y2H9
T9 chain: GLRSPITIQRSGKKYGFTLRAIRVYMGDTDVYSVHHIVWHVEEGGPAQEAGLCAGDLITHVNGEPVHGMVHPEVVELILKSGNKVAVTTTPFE

T10: GST-MUPP1 PDZ domain 13 (Homo sapiens (Human)), O75970
T10 chain: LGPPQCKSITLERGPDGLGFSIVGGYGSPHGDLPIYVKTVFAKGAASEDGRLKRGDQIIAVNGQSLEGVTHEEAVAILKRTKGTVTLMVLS

T11: GST-KIAA0807(S) PDZ domain 1 (Homo sapiens (Human)), Q6P0Q8
T11 chain: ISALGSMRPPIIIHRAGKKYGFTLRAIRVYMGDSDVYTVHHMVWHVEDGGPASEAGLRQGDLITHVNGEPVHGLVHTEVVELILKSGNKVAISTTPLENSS

T12: GST-APXL-1 PDZ domain 1 (Homo sapiens (Human)), Q13796
T12 chain: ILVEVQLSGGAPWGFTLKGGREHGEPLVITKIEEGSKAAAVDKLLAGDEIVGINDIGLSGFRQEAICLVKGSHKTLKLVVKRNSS

T13: GST-MUPP1 PDZ domain 7 (Homo sapiens (Human)), O75970
T13 chain: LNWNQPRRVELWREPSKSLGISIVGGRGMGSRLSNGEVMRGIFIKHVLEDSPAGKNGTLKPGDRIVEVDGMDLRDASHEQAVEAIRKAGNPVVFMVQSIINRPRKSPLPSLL

T14: GST-KIAA0382 PDZ domain 1 (Canis lupus familiaris (Dog) (Canis familiaris)), A0A8I3
T14 chain: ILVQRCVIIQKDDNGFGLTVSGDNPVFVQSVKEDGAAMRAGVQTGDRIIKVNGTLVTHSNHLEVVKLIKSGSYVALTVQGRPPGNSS

T15: GST-MUPP1 PDZ domain 9 (Homo sapiens (Human)), O75970
T15 chain: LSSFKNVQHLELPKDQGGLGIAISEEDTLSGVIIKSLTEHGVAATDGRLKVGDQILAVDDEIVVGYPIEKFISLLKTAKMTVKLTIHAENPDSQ

T16: GST-novel PDZ gene PDZ domain 1 (Homo sapiens (Human)), Q9H5P4
T16 chain: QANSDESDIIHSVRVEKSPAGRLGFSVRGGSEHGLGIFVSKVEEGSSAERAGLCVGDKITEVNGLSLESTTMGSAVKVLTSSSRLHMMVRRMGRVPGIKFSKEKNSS

T17: GST-Outer Membrane PDZ domain 1 (Homo sapiens (Human)), P57105
T17 chain: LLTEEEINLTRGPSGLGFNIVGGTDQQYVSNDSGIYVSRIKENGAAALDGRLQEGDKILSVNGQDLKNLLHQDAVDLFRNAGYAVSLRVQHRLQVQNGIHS

T18: GST-PTN-4 PDZ domain 1 (Homo sapiens (Human)), P29074
T18 chain: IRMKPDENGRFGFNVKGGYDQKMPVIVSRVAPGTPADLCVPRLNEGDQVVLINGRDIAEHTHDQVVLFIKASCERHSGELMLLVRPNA


Key:
[1] = target: T1, GST-PTPL1 PDZ domain 2 (Homo sapiens …); experiment: G' assay; note: key of the grades not given here
[2] = target: T2, GST-Shank 1 PDZ domain 1 (Homo sapiens …); experiment: G' assay; note: key of the grades not given here
[3] = target: T3, GST-LIM-RIL PDZ domain 1 (Homo sapiens …); experiment: G' assay; note: key of the grades not given here
[4] = target: T4, GST-LIM Mystique PDZ domain 1 (Homo …); experiment: G' assay; note: key of the grades not given here
[5] = target: GST-KIAA807 [GST: P08515]; experiment: G' assay; note: key of the grades not given here
Chain of GST-KIAA807 [GST: P08515] (P08515 whole entry, the tested form may be a part): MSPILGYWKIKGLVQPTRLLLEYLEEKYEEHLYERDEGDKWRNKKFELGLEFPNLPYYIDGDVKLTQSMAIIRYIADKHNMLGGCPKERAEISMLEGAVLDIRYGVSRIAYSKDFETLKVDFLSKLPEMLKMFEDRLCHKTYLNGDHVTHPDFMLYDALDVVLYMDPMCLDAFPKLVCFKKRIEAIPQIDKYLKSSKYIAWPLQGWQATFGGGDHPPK

[6] = target: T5, GST-ENIGMA PDZ domain 1 (Homo sapiens …); experiment: G' assay; note: key of the grades not given here
[7] = target: T6, GST-AIPC PDZ domain 1 (Homo sapiens …); experiment: G' assay
[8] = target: T7, GST-MINT1 PDZ domain 2 (Mus musculus …); experiment: G' assay
[9] = target: GST-PAR3 PDZ domain 3 (Homo sapiens (Human)), Q8TEW0; experiment: G' assay; note: key of the grades not given here
Chain of GST-PAR3 PDZ domain 3 (Homo sapiens (Human)), Q8TEW0 (Q8TEW0 579-681): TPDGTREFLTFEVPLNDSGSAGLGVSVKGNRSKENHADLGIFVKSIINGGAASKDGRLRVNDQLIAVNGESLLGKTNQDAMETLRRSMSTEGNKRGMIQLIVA

[10] = target: GST-BAI-1 Associated Protein PDZ domain 6 (Homo sapiens (Human)), Q96QZ7; experiment: G' assay; note: key of the grades not given here
Chain of GST-BAI-1 Associated Protein PDZ domain 6 (Homo sapiens (Human)), Q96QZ7 (Q96QZ7 1143-1233): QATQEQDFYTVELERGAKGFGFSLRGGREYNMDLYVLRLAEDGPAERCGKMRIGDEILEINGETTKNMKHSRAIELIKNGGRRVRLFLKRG

[11] = target: T8, GST-KIAA1526 PDZ domain 1 (Homo sapiens …); experiment: G' assay
[12] = target: T9, GST-KIAA0973 PDZ domain 1 (Homo sapiens …); experiment: G' assay
[13] = target: GST-KIAA1634 PDZ domain 5 (Homo sapiens (Human)), Q5TCQ9; experiment: G' assay; note: key of the grades not given here
Chain of GST-KIAA1634 PDZ domain 5 (Homo sapiens (Human)), Q5TCQ9 (Q5TCQ9 other isoform, or with tags, fused parts or gaps): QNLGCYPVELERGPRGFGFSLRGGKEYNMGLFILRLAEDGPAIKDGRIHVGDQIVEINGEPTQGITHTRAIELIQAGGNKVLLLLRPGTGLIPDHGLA

[14] = target: T10, GST-MUPP1 PDZ domain 13 (Homo sapiens …); experiment: G' assay
[15] = target: T11, GST-KIAA0807(S) PDZ domain 1 (Homo …); experiment: G' assay
[16] = target: T12, GST-APXL-1 PDZ domain 1 (Homo sapiens …); experiment: G' assay
[17] = target: T13, GST-MUPP1 PDZ domain 7 (Homo sapiens …); experiment: G' assay
[18] = target: T14, GST-KIAA0382 PDZ domain 1 (Canis lupus …); experiment: G' assay
[19] = target: T15, GST-MUPP1 PDZ domain 9 (Homo sapiens …); experiment: G' assay
[20] = target: T16, GST-novel PDZ gene PDZ domain 1 (Homo …); experiment: G' assay
[21] = target: T11, GST-KIAA0807(S) PDZ domain 1 (Homo …); experiment: G assay titration, PDZ 0.5 ug/ml
[22] = target: T17, GST-Outer Membrane PDZ domain 1 (Homo …); experiment: G' assay
[23] = target: T18, GST-PTN-4 PDZ domain 1 (Homo sapiens …); experiment: G' assay
[24] = target: GST-KIAA0147 PDZ domain 1 (Homo sapiens (Human)), Q14160; experiment: G' assay; note: key of the grades not given here
Chain of GST-KIAA0147 PDZ domain 1 (Homo sapiens (Human)), Q14160 (Q14160 other isoform, or with tags, fused parts or gaps): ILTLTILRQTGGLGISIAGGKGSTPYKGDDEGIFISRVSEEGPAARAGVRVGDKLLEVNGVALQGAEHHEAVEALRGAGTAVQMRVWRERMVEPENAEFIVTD

[25] = target: GST-Atrophin-1 Interacting Protein PDZ domain 5 (Rattus norvegicus (Rat)), O88382; experiment: G' assay; note: key of the grades not given here
Chain of GST-Atrophin-1 Interacting Protein PDZ domain 5 (Rattus norvegicus (Rat)), O88382 (O88382 1128-1225): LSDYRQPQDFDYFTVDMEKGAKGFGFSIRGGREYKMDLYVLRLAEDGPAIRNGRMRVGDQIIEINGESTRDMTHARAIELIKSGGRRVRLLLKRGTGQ

Classification [2] [A450 class] | Classification [3] [A450 class] | Classification [5] [A450 class] | Classification [10] [A450 class] | Classification [11] [A450 class] | Classification [13] [A450 class] | Classification [15] [A450 class] | Classification [18] [A450 class] | Binder | further results
1 | 2 | 5 | 2 | 1 | 1 | 5 | 2 | VHDAESSDEDGYDWGPATDL (modifications not checked) [zona occludens 3 (ZO-3) PL peptide] | Classification [1]: 2 A450 class; Classification [4]: 2 A450 class; Classification [6]: 1 A450 class; Classification [7]: 1 A450 class; Classification [8]: 2 A450 class; Classification [9]: 1 A450 class; Classification [12]: 2 A450 class; Classification [14]: 2 A450 class; Classification [16]: 2 A450 class; Classification [17]: 1 A450 class; Classification [19]: 1 A450 class; Classification [20]: 1 A450 class
– | – | 3 | – | 2 | – | 4 | – | QPTPTLGLNLGNDPDRGTSI (modifications not checked) [GluR delta-2] | Kd [21]: 4 µM; Classification [22]: 2 A450 class
1 | 1 | 5 | 1 | – | 1 | 3 | 1 | QATSRNGHSARQHVVADTEL (modifications not checked) [CD34] | Classification [23]: 1 A450 class; Classification [24]: 1 A450 class; Classification [25]: 1 A450 class
